Consider five substances from publication PMC12309418.

The target in assay [1] is fluorescein-maleimide labeled ABD2 of PLS2 (human). Nature of the assay: fluorescence polarisation; equilibrium fluorescence anisotropy in a plate reader, 10 nM FM-ABD2 with increasing RD-ABD1, 60 min at 22 °C, PLS buffer pH 7.0, quadratic isotherm fit. For orientation: Polarisation of emitted light reports the rotation of a fluorescent probe.
Assay [2] shares this target. Nature of the assay: fluorescence polarisation; equilibrium fluorescence anisotropy in a plate reader, 10 nM FM-ABD2 with increasing RD-ABD1, 60 min at 22 °C, PLS buffer pH 8.0, quadratic isotherm fit.
For assay [3] the target is unchanged. Nature of the assay: fluorescence polarisation; stopped-flow fluorescence anisotropy kinetics, 25 °C, buffer pH 6.6; association: FM-ABD2 (50 or 100 nM) with at least 10-fold excess of unlabeled RD-ABD1 (pseudo-first-order); dissociation: 25 or 50 nM FM-ABD2 bound to 50 or 100 nM RD-ABD1, competed with 7.5 to 20 μM unlabeled ABD2; Kd calculated from koff and kon.

Assay [4] shares this target. The assay can be described thus: fluorescence polarisation; stopped-flow fluorescence anisotropy kinetics, 25 °C, buffer pH 7.4; association: FM-ABD2 (50 or 100 nM) with at least 10-fold excess of unlabeled RD-ABD1 (pseudo-first-order); dissociation: 25 or 50 nM FM-ABD2 bound to 50 or 100 nM RD-ABD1, competed with 7.5 to 20 μM unlabeled ABD2; Kd calculated from koff and kon.

Assay [5] shares this target. The assay can be described thus: fluorescence polarisation; stopped-flow fluorescence anisotropy kinetics, 25 °C, buffer pH 7.8; association: FM-ABD2 (50 or 100 nM) with at least 10-fold excess of unlabeled RD-ABD1 (pseudo-first-order); dissociation: 25 or 50 nM FM-ABD2 bound to 50 or 100 nM RD-ABD1, competed with 7.5 to 20 μM unlabeled ABD2; Kd calculated from koff and kon.

Assay [6] has the same target. The assay can be described thus: fluorescence polarisation; stopped-flow fluorescence anisotropy kinetics, 25 °C, buffer pH 8.0; association: FM-ABD2 (50 or 100 nM) with at least 10-fold excess of the unlabeled RD-ABD1 construct (pseudo-first-order); dissociation: 25 or 50 nM FM-ABD2 bound to 50 or 100 nM RD-ABD1 construct, competed with 7.5 to 20 μM unlabeled ABD2; Kd calculated from koff and kon.

For assay [7] the target is unchanged. Nature of the assay: fluorescence polarisation; stopped-flow fluorescence anisotropy kinetics, 25 °C, buffer pH 7.0; association: FM-ABD2 (50 or 100 nM) with at least 10-fold excess of the unlabeled RD-ABD1 construct (pseudo-first-order); dissociation: 25 or 50 nM FM-ABD2 bound to 50 or 100 nM RD-ABD1 construct, competed with 7.5 to 20 μM unlabeled ABD2; Kd calculated from koff and kon.

Assay [8] has as its target Skeletal actin, filamentous (F-actin) (rabbit) (UniProt P68135).
The target in assay [9] is PLS2 RD-ABD1 (a.a. 1-385) (human) (UniProt P13796). The assay can be described thus: fluorescence polarisation; equilibrium fluorescence anisotropy, pH 7.0, PLS buffer, 22 °C, 60 min; 10 nM FM-ABD2 with RD-ABD1; quadratic isotherm.
Chain of PLS2 RD-ABD1 (a.a. 1-385) (human) (P13796 1-385): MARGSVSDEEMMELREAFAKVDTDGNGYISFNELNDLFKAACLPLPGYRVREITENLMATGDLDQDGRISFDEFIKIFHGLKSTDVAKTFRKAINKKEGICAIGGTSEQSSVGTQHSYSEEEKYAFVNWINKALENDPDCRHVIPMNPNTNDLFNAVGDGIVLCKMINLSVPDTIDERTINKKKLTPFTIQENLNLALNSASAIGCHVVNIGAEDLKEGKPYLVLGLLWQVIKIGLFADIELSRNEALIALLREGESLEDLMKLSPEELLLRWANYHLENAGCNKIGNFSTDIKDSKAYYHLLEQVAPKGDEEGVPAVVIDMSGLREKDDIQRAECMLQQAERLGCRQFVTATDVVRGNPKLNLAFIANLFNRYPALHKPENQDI
Assay [10] concerns the target Skeletal actin, filamentous (F-actin) (rabbit) (UniProt P68135). Nature of the assay: fluorescence polarisation; equilibrium fluorescence anisotropy, pH 7.0, PLS buffer, 22 °C, 60 min; 5 nM FM-ABD2 with F-actin stabilized with 1.0 μM phalloidin; quadratic isotherm.
Assay [11] shares this target. The assay can be described thus: fluorescence polarisation; equilibrium fluorescence anisotropy, pH 8.0, PLS buffer, 22 °C, 60 min; 5 nM FM-ABD2 with F-actin stabilized with 1.0 μM phalloidin; quadratic isotherm.
For assay [12] the target is unchanged. Nature of the assay: fluorescence polarisation; stopped-flow fluorescence anisotropy kinetics, pH 7.8, 25 °C; association of FM-ABD2 (50 or 100 nM) with at least 10-fold F-actin; koff could not be measured.
The target is the same in assay [13]. The assay can be described thus: fluorescence polarisation; stopped-flow fluorescence anisotropy kinetics, pH 8.0, 25 °C; association of FM-ABD2 (50 or 100 nM) with at least 10-fold F-actin; koff could not be measured.
Assay [14] shares this target. Nature of the assay: fluorescence polarisation; equilibrium fluorescence anisotropy in a plate reader, 5 nM FM-ABD2 with F-actin stabilized with 1.0 uM phalloidin, PLS buffer pH 7.0, 22 °C, quadratic isotherm.
The target is the same in assay [15]. Nature of the assay: fluorescence polarisation; equilibrium fluorescence anisotropy in a plate reader, 5 nM FM-ABD2 with F-actin stabilized with 1.0 uM phalloidin, PLS buffer pH 8.0, 22 °C, quadratic isotherm.
Assay [16] deals with PLS2 RD-ABD1 (a.a. 1-385) (human) (UniProt P13796). The assay can be described thus: fluorescence polarisation; stopped-flow fluorescence anisotropy kinetics of FM-ABD2 with RD-ABD1, 25 °C, pH 6.6 to 8.0 (the text tells the results for the whole pH range together); dissociation with excess unlabeled ABD2.
The target in assay [17] is PLS2 RD-ABD1-H207K (human) (UniProt P13796). Nature of the assay: fluorescence polarisation; stopped-flow fluorescence anisotropy kinetics of FM-ABD2 with RD-ABD1-H207K and RD-ABD1-H207Y, 25 °C, pH 7.0 and 8.0 (fold changes for both pH values together); dissociation with excess unlabeled ABD2.
Assay [18] concerns the target PLS2 RD-ABD1-H207Y (human) (UniProt P13796). The assay is described as above.
In assay [19] the target is Skeletal actin, filamentous (F-actin) (rabbit) (UniProt P68135). The assay can be described thus: fluorescence polarisation; stopped-flow fluorescence anisotropy kinetics, pH 6.6, 25 °C; association: FM-ABD2 (50 or 100 nM) with at least 10-fold F-actin; dissociation: from phalloidin-stabilized F-actin with excess unlabeled ABD2; Kd from koff and kon.
The target is the same in assay [20]. Nature of the assay: fluorescence polarisation; stopped-flow fluorescence anisotropy kinetics, pH 6.8, 25 °C; association: FM-ABD2 (50 or 100 nM) with at least 10-fold F-actin; dissociation: from phalloidin-stabilized F-actin with excess unlabeled ABD2; Kd from koff and kon.
Assay [21] shares this target. Nature of the assay: fluorescence polarisation; stopped-flow fluorescence anisotropy kinetics, pH 7.0, 25 °C; association: FM-ABD2 (50 or 100 nM) with at least 10-fold F-actin; dissociation: from phalloidin-stabilized F-actin with excess unlabeled ABD2; Kd from koff and kon.
Assay [22] shares this target. Nature of the assay: fluorescence polarisation; stopped-flow fluorescence anisotropy kinetics, pH 7.4, 25 °C; association: FM-ABD2 (50 or 100 nM) with at least 10-fold F-actin; dissociation: from phalloidin-stabilized F-actin with excess unlabeled ABD2; Kd from koff and kon.
Assay [23] addresses PLS2 RD-ABD1 (a.a. 1-385) (human) (UniProt P13796). Nature of the assay: fluorescence polarisation; stopped-flow fluorescence anisotropy, 25 °C, PLS buffer pH 6.6; association of FM-ABD2 (50 or 100 nM) with excess RD-ABD1 (kon from the slope of kobs, line forced through koff); dissociation by competition with 7.5 to 20 uM unlabeled ABD2 (koff).
The target is the same in assay [24]. The assay can be described thus: fluorescence polarisation; stopped-flow fluorescence anisotropy, 25 °C, PLS buffer pH 7.0; association of FM-ABD2 (50 or 100 nM) with excess RD-ABD1 (kon from the slope of kobs, line forced through koff); dissociation by competition with 7.5 to 20 uM unlabeled ABD2 (koff).
Assay [25] has the same target. Nature of the assay: fluorescence polarisation; stopped-flow fluorescence anisotropy, 25 °C, PLS buffer pH 7.4; association of FM-ABD2 (50 or 100 nM) with excess RD-ABD1 (kon from the slope of kobs, line forced through koff); dissociation by competition with 7.5 to 20 uM unlabeled ABD2 (koff).
Assay [26] has the same target. The assay can be described thus: fluorescence polarisation; stopped-flow fluorescence anisotropy, 25 °C, PLS buffer pH 7.8; association of FM-ABD2 (50 or 100 nM) with excess RD-ABD1 (kon from the slope of kobs, line forced through koff); dissociation by competition with 7.5 to 20 uM unlabeled ABD2 (koff).
The target is the same in assay [27]. Nature of the assay: fluorescence polarisation; stopped-flow fluorescence anisotropy, 25 °C, PLS buffer pH 8.0; association of FM-ABD2 (50 or 100 nM) with excess RD-ABD1 (kon from the slope of kobs, line forced through koff); dissociation by competition with 7.5 to 20 uM unlabeled ABD2 (koff).

Chain of PLS2 RD-ABD1 (a.a. 1–385) (P13796 1-385): as above
Chain of PLS2-core (a.a. 83–627) (P13796 83-627): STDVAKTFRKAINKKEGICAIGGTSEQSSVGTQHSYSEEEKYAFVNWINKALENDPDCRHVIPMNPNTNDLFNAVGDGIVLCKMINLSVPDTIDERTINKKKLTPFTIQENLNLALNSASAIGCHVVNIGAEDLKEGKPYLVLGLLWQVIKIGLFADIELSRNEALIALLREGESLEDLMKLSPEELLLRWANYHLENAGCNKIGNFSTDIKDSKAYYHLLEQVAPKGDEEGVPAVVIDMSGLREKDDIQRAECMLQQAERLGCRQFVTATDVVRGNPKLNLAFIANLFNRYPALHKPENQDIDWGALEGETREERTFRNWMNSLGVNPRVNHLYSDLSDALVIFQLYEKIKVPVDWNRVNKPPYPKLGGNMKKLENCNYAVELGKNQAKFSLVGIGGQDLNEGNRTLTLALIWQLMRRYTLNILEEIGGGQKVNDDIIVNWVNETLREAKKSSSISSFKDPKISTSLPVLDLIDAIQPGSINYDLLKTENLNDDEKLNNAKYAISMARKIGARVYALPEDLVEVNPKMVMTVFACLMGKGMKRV

As to “PLS2 RD-ABD1 (a.a. 1–385) (from UniProt P13796 1-385) (domain or fragment)”, the Kd (usually the concentration at which binding is half-saturated) was 4.5 nM in assay [1]; 8.7 nM in assay [2]; 5.1 nM in [3]; 11 nM in assay [4]; 7.7 nM in assay [5]; 7.6 nM in assay [6]. In assay [7], the Kd was 5.7 nM. The koff (commonly the rate constant with which the complex falls apart) in [3] was 0.01 s⁻¹; in [4], 0.013 s⁻¹; in assay [5], 0.008 s⁻¹; in assay [6] it was 0.008 s⁻¹; in assay [7], 0.009 s⁻¹. In addition, the kon (usually the rate constant with which the complex forms) in [3] is 1.94e+06 M⁻¹ s⁻¹; in assay [4], 1.24e+06 M⁻¹ s⁻¹; in [5], 1.07e+06 M⁻¹ s⁻¹; in assay [6], 1.01e+06 M⁻¹ s⁻¹; in assay [7], 1.6e+06 M⁻¹ s⁻¹.

As to “PLS2 RD-ABD1-H207K (from UniProt P13796 1-385) (domain or fragment)”, in assay [6], the on-rate (kon) was 1.12e+06 M⁻¹ s⁻¹. In assay [7], the equilibrium dissociation constant (Kd) was 24 nM, the koff is 0.039 s⁻¹ and the on-rate constant (kon) is 1.59e+06 M⁻¹ s⁻¹.

In the case of “PLS2 RD-ABD1-H207Y (from UniProt P13796 1-385) (domain or fragment)”, in [6], the dissociation constant (Kd) is 2.2 nM, the koff is 0.0026 s⁻¹ and the kon was 1.21e+06 M⁻¹ s⁻¹. In addition, in [7], the Kd is 1.1 nM, the koff is 0.0021 s⁻¹ and the on-rate constant (kon) was 1.87e+06 M⁻¹ s⁻¹.

In turn, “PLS2-core (a.a. 83–627) (from UniProt P13796 83-627) (domain or fragment)” showed a fold decrease in F-actin bundling by PLS2-core (light scattering; low-speed centrifugation), pH 8.0 against pH 7.0 in assay [8] of 2 fold.

As to “fluorescein-maleimide labeled PLS2 ABD2 (FM-ABD2) (domain or fragment)”, in assay [9], the fold stronger association at pH 7.0 than at pH 8.0 worked out at 2 fold. The Kd came out at 5 nM in [10]; 1.7 nM in assay [11]; 2.88 nM in assay [14]; 0.613 nM in assay [15]; 15 nM in assay [19]; 13 nM in [20]. For the same substance, the dissociation constant Kd in [21] was 9.5 nM; in [22], 12 nM. For the same substance, the kon is 1.28e+06 M⁻¹ s⁻¹ in assay [12]; 1.45e+06 M⁻¹ s⁻¹ in [13]; 479000 M⁻¹ s⁻¹ in assay [19]; 502000 M⁻¹ s⁻¹ in [20]; 600000 M⁻¹ s⁻¹ in assay [21]; 601000 M⁻¹ s⁻¹ in assay [22]. For the same substance, the kon in assay [23] came to 1.94e+06 M⁻¹ s⁻¹; in assay [24] it was 1.6e+06 M⁻¹ s⁻¹; in assay [25], 1.24e+06 M⁻¹ s⁻¹; in [26], 1.07e+06 M⁻¹ s⁻¹; in assay [27], 1.01e+06 M⁻¹ s⁻¹. In assay [16], this substance gave a fold slower kon at pH 8.0 than at pH 6.6 of 2 fold. For the same substance, the koff was found to be 0.008 s⁻¹ in [16]; 0.0073 s⁻¹ in assay [19]; 0.0066 s⁻¹ in assay [20]; 0.0057 s⁻¹ in assay [21]; 0.0073 s⁻¹ in [22]; 0.00992 s⁻¹ in [23]. Further, the koff in assay [24] amounted to 0.00905 s⁻¹; in assay [25] it was 0.0135 s⁻¹; in assay [26], 0.00826 s⁻¹; in assay [27], 0.0077 s⁻¹. In addition, the fold change of kon against WT RD-ABD1 in [17] and in assay [18] was less than 1.2 fold in each case. In assay [17], this substance showed a fold increase of koff against WT RD-ABD1 of 4 to 12 fold. For the same substance, the fold decrease of koff against WT RD-ABD1 in [18] is 3 to 4 fold.
